Results taken from patent publication US20240191187A1, “MEDIA AND METHODS FOR GROWING MAMMARY ORGANOIDS” (STEMCELL TECHNOLOGIES CANADA INC., priority 2021, published 2024).
“Also recorded” adds a separate entry of the source.

B1: RSPO-1: WNT signaling agonist, an R-spondin (protein, UniProt Q2MKA7 21-263, looked up)
R-spondin-1: SRGIKGKRQRRISAEGSQACAKGCELCSEVNGCLKCSPKLFILLERNDIRQVGVCLPSCPPGYFDARNPDMNKCIKCKIEHCEACFSHNFCTKCKEGLYLHKGRCYPACPEGSSAANGTMECSSPAQCEMSEWSPWGPCSKKQQLCGFRRGSEERTRRVLHAPVGDHAACSDTKETRRCTVRRVPCPEGQKRRKGGQGRRENANRNLARKESKEAGAGSRRRKGQQQQQQQGTVGPLTSAGPA
B2: anti mullerian hormone (protein, UniProt P03971 452-560, looked up)
Muellerian-inhibiting factor: SAGATAADGPCALRELSVDLRAERSVLIPETYQANNCQGVCGWPQSDRNPRYGNHVVLLLKMQVRGAALARPPCCVPTAYAGKLLISLSEERISAHHVPNMVATECGCR
B3: NOGGIN: protein inhibitor of BMP signaling (protein, UniProt Q13253 28-232, looked up)
Noggin: QHYLHIRPAPSDNLPLVDLIEHPDPIFDPKEKDLNETLLRSLLGGHYDPGFMATSPPEDRPGGGGGAAGGAEDLAELDQLLRQRPSGAMPSEIKGLEFSEGLAQGKKQRLSKKLRRKLQMWLWSQTFCPVLYAWNDLGSRFWPRYVKVGSCFSKRSCSVPEGMVCKPSKSVHLTVLRWRCQRRGGQRCGWIPIQYPIISECKCSC

Tests used:
[1] = tested on: mouse mammary epithelial cells; experiment: Mouse mammary organoid formation, organoid organization by brightfield/confocal imaging; format: cell-based
Protocol: (§1) A single cell suspension of mouse mammary epithelial cells was isolated from mammary glands, as follows. A resected mammary gland was minced and placed in a tube containing standard culture medium, including 50 μg/ml gentamycin, collagenase, and hyaluronidase. The mammary gland was incubated for 2 hours at 37° C. in the tissue incubator. Following the incubation, the cell dissociation mixture was washed in advanced DMEM and centrifuged at 300 g for 5 minutes. Depending on the appearance of the pellet, in some cases it is desirable to resuspend the pellet in ammonium chloride to lyse contaminating red blood cells. Following, the pellet is resuspended in 0.25% Trypsin-EDTA, as above, for 5 minutes at 37° C. and then centrifuged at (300 g for 5 minutes). The supernatant was discarded and the pellet was resuspended in a 100 μg/ml DNase solution for 1 minute at room temperature. The resulting cells were passed through a 37 μm strainer to obtain the single cell suspension.
Each well received between 0.5-1 mL of any one of the various culture media described herein.
The plated single cell suspension of mammary epithelial cells formed into organoids that were passaged approximately every 7-days, with 2-3 full medium changes during such 7-day period. To passage the organoids, the Matrigel domes were broken apart by pipetting in pre-warmed 0.25% Trypsin-EDTA, incubating at 37° C. for ˜ 5-15 minutes and pipetting again. The trypsinization reaction was inactivated by washing in an equal volume of Hanks Balanced Salt Solution supplemented with 2% FBS. Depending on the density and size of organoids a 1:2-1:5 split was performed, with the cells seeded as domes, as described above. Alternatively, cells would be strained through a 37 μm strainer to obtain the single cell suspension and seeded in Matrigel domes as described above.
Single cell suspensions of mouse mammary epithelial cells were obtained in accordance with Example 1. The single cell suspension was sorted using a BD FACSAria™ Fusion flow cytometer into three populations of cells corresponding to the ER^+, milk, and basal cell lineages, based on the differential expression of EpCAM, CD49f, and CD49b. Non-epithelial cells were further eliminated during the sorting strategy based on the expression of CD45, Ter119 and CD31. The sorted cells were seeded and cultured essentially as described in Example 2 in an organoid medium free of an exogenously-added inhibitor of BMP signaling and either comprising exogenously added RSPO-1 (˜100 ng/mL) or lacking exogenously added RSPO-1 (e.g. MammoCult™ Mouse Organoid Growth Medium, […] Technologies) (FIG. 2).
Organoid media were formulated to lack either exogenously added RSPO-1 or RSPO-3, and they were tested on single cell suspensions of bulk mammary epithelial cells, obtained in accordance with Example 1 and seeded and cultured as described in Example 2. […] Flow cytometry analysis of the cellular composition of organoids formed in either RSPO-comprising media or media lacking RSPO confirmed a reduction in the number of basal cells among organoids formed in the absence of WNT agonism (FIG. 3B).
In a follow-up experiment, organoids were formed from single cell suspensions obtained in accordance with Example 1, and seeded and cultured as described in Example 2. […] At the end of the second passage the formed organoids were processed and stained for K8, K14, and DAPI, as described in Example 3.
The foregoing experiments were performed in a medium that included an inhibitor of BMP signaling, thus the effect of BMP signaling inhibition on the formation of mouse mammary organoids was explored.

[2] = tested on: mouse mammary epithelial cells; experiment: Mouse mammary organoid cell lineage balance by flow cytometry (EpCAM, CD49f); format: cell-based; details: non-sorted mouse cells; ~100 ng/mL NOGGIN and ~100 ng/mL RSPO-1 together vs free of both; 8 independent experiments; 14 days (P0)
Protocol: Panels A) and B) show representative images of organoids after cells were cultured for 14 days (P0) in an R-spondin-containing (panel A) or an R-spondin-free (panel B) medium. Cells of the organoids shown in panels A) and B) were respectively analyzed by flow cytometry for expression of EpCAM and CD49f (panels C) and D)). A summary of flow cytometry data is shown in panel E. Results were confirmed in n=8 mice. Scale bars are 500 μm.
as §1, with “The resulting cells were passed through a 37 μm strainer to obtain the single cell suspension.” left out

[3] = tested on: human mammary epithelial cells; experiment: Human mammary organoid formation, brightfield microscopy; format: cell-based
Protocol: Fragments of human mammary epithelial cells were isolated from tissue samples obtained from academic collaborators, as follows. Resected tissue samples were minced in a petri dish using a scalpel to cut in a cross-hatched pattern. The minced tissue samples were placed in a dissociation flask in standard culture medium supplemented with BSA, insulin, collagenase and hyaluronidase. The flask was gently shaken overnight on an orbital shaker placed in a 37° C. tissue incubator. The following morning the floating layer of fat was removed by pipette, and the remaining liquid was transferred to a tube and briefly centrifuged at low rpm (˜80 g for 30 seconds). The pellet (A pellet) was set aside and the supernatant was further centrifuged for an incrementally longer period of time and at an incrementally higher rpm (˜200 g for 4 minutes). The pellet (B pellet) was set aside and the supernatant was further centrifuged for a still incrementally longer period of time and at an incrementally higher rpm (˜450 g for 5 minutes).
Cryopreserved pellet A and pellet B were dissociated into a single cell suspension by treatment with 0.25% Trypsin-EDTA for 5 minutes at 37° C. (with intermittent trituration) and then centrifuged at (300 g for 5 minutes). The supernatant was discarded and the pellet was resuspended in a 100 μg/ml DNase solution for 1 minute at room temperature. […]

[4] = tested on: human mammary epithelial cells; experiment: Human mammary organoids stained for K8/K14, confocal microscopy; format: cell-based; details: Day 17 organoids; 50 ng/mL NRG3, 100 ng/mL AMH, 50 ng/mL GM-CSF
Protocol: Organoids were recovered from Matrigel by incubating in Corning Cell Recovery Solution for 1 hour with rocking on ice. Organoids were then fixed in 4% paraformaldehyde (PFA) at room temperature for 1 hour and stored in PBS at 4° C. After PFA fixation, antigen retrieval was performed by boiling the organoids in sodium citrate buffer for 20 minutes at 96° C. Organoids were permeabilized in a 0.5% Triton-X-100 solution in PBS overnight at room temperature. Samples were blocked by incubating overnight in a solution of 5% goat serum.
Following fixation and permeabilization, the organoids were incubated sequentially in primary antibody and secondary antibody solutions (as summarized in the table below) overnight at room temperature. Samples were counterstained in a 2 μg/ml DAPI solution for 20 minutes and dehydrated through stepwise incubations in solutions with increasing methanol concentrations (50%, 80%, then 100% methanol). Organoids were embedded in a solution of 2:1 Benzyl Benzoate-Benzyl alcohol (BABB), transferred to Ibidi glass bottom chamber slides and imaged using a Leica SP8 confocal laser scanning microscope. […]
The effects of modulating signaling through BMP were analyzed across multiple experiments in terms of total cell count among formed organoids (FIG. 9A) and the lineage balance of the cells among formed organoids (FIG. 9B). […]

[5] = tested on: human mammary epithelial cells; experiment: Human mammary organoid cell lineage balance by flow cytometry; details: just prior to first passage; ~50 ng/mL BMP2 or BMP4; ~25-200 ng/mL NOGGIN or ~10-100 nM LDN193189
Protocol: Cryopreserved pellet A and pellet B were dissociated into a single cell suspension by treatment with 0.25% Trypsin-EDTA for 5 minutes at 37° C. (with intermittent trituration) and then centrifuged at (300 g for 5 minutes). The supernatant was discarded and the pellet was resuspended in a 100 μg/ml DNase solution for 1 minute at room temperature. The resulting cells were passed through a 37 μm strainer to obtain the single cell suspension.
Organoids were formed in media comprising either BMP signaling activator, ˜50 ng/mL BMP2 or ˜50 ng/mL BMP4, and in media comprising either BMP signaling inhibitor, ˜25-200 ng/mL NOGGIN or ˜10-100 nM LDN193189. Just prior to the first passage, the formed organoids were dissociated and the cell lineage balance was analyzed by flow cytometry.
Organoids were formed in media comprising either no ligand of an ERBB receptor family member, or comprising ˜10-50 ng/mL amphiregulin (AREG), ˜10-50 ng/mL epidermal growth factor (EGF), or ˜50-100 ng/mL heregulin/neuregulin 1 (NRG1). Just prior to the first passage, the formed organoids were dissociated and the cell lineage balance was analyzed by flow cytometry.
Just prior to the first passage, the formed organoids were dissociated and the cell lineage balance was analyzed by flow cytometry.

Molecule | organization of organoids formed in the absence of RSPO-1 over three successive passages ([1]; non-sorted mouse cells, P0-P2, absence vs presence of RSPO-1, medium included BMP signaling inhibitor) | type of organoids formed from bulk (non-sorted) mammary epithelial cells ([1]; non-sorted mouse cells, RSPO comprising media vs media free of RSPO (luminal-biased/cystic)) | organoid formation from sorted ER+ lineage cells ([1]; sorted mouse ER+ luminal cells, medium with ~100 ng/mL RSPO-1 vs lacking RSPO-1, no BMP signaling inhibitor) | organoid organization from sorted basal lineage cells ([1]; sorted mouse basal lineage cells, RSPO-1 (~100 ng/mL) containing medium vs RSPO-1 deficient) | organoid organization from sorted milk lineage cells ([1]; sorted mouse milk lineage cells, RSPO-1 (~100 ng/mL) containing medium vs RSPO-1 deficient (cystic)) | lineage balance in medium free of NOGGIN and RSPO-1 vs medium comprising both [2] | luminal-biased organoids with vs without exogenously-added RSPO-1 ([3]; luminal-promoting organoid medium, ~20-200 ng/mL RSPO-1) | lineage restriction of organoids formed (K8/K14 staining) [4] | formation of luminal organoids, single vs dual BMP signaling inhibitor ([3]; media comprising NOGGIN or LDN193189 alone vs both, successive passages) | cell lineage balance, BMP signaling modulators [5]
B1 | cystic organization devoid of branching | yielded a significant number of mixed organoids | generally the same efficiency in either of the tested medium formulations | a predominately mixed organization | a more mixed organization of basal, luminal and other cells | a significant reduction of basal cells with a concomitant increase in luminal cells | did not reveal a significant increase or reduction of luminal-biased organoids |  |  | 
B2 |  |  |  |  |  |  |  | bias the culture of mammary epithelial cells to form luminal-restricted organoids; also recorded: Luminal-restricted organoids were formed |  | 
B3 |  |  |  |  |  | a significant reduction of basal cells with a concomitant increase in luminal cells |  |  | appeared sufficient to bias formation of luminal organoids | decreased the number of basal cells while increasing the number of luminal cells
